Reference: article PMC9482650, “Quantitative fragmentomics allow affinity mapping of interactomes” (Nature Communications, 2022)

T1: PTPN13_1, Q12923
T1 sequence (Q12923 1088-1188, limits assumed, looked up): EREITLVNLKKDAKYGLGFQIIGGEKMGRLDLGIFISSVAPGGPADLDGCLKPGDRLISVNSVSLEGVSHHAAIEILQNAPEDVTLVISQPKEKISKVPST

B1: SCN5A, Q14524 (peptide)
chain: SPDRDRESIV
B2: CRIPT, Q9P021 (peptide)
chain: DTKNYKQTSV
B3: PTPRG, P23470 (peptide)
chain: DPAESMESLV
B4: MARCHF3, Q86UD3 (peptide)
chain: VKRNSKETVV
B5: TRPV6, Q9H1D0 (peptide)
chain: EDGESWEYQI
B6: NF2, P35240;P35240-1 (peptide)
chain: KSRVAFFEEL
B7: REELD1, A0A1B0GV85 (peptide)
chain: PSVGSKKTVL
B8: FAM110D, Q8TAY7 (peptide)
chain: ARGPPRESEV
B9: CACNG2, Q9Y698 (peptide)
chain: NTANRRTTPV
B10: FZD2, Q14332 (peptide)
chain: TNSRHGETTV
B11: SLC1A1, P43005 (peptide)
chain: TISFTQTSQF
B12: CACNA1A, O00555 (peptide)
chain: PYSESDDDWC
B13: CLDN4, O14493 (peptide)
chain: ARSAAASNYV
B14: CNTNAP2, Q9UHC6 (peptide)
chain: IDESKKEWLI
B15: FRMPD1, Q5SYB0 (peptide)
chain: TQKFRASTAL
B16: CACNG8, Q8WXS5 (peptide)
chain: NTLNRKTTPV
B17: MTNR1A, P48039 (peptide)
chain: NNNVVKVDSV
B18: OR8G1, Q15617 (peptide)
chain: KKMLQRRTLL
B19: PTGIR, P43119 (peptide)
chain: AEASVACSLC
B20: PTPRZ1, P23471 (peptide)
chain: NIAESLESLV
B21: ABCA1, O95477 (peptide)
chain: QDEKVKESYV
B22: KLHDC7A, Q5VTJ3 (peptide)
chain: PTPDLPQTRV
B23: MKNK1, Q9BUB5 (peptide)
chain: GEDRSPPTAL
B24: PRR16, Q569H4 (peptide)
chain: ILRKSTTTTV
B25: KCNJ18, B7U540 (peptide)
chain: QRPYRRGSEI
B26: MUC3A, MUC3B, Q02505;Q9H195 (peptide)
chain: KRPEMTSSSV
B27: CIB2, O75838 (peptide)
chain: DFLSTFHIRI
B28: SLC16A7, O60669 (peptide)
chain: SVTSERETNI
B29: SBF1, O95248 (peptide)
chain: DRIQSCLSDA
B30: PTTG2, Q9NZH5 (peptide)
chain: LPAVCYDIDI
B31: SLCO1A2, P46721 (peptide)
chain: LKDDELKTKL
B32: GPR12, P47775 (peptide)
chain: AQRARSPSDV
B33: ZSCAN30, Q86W11 (peptide)
chain: MQHQRTHTRV
B34: NECTIN1, Q15223 (peptide)
chain: SFISKKEWYV
B35: SCN8A, Q9UQD0 (peptide)
chain: RQKEVRESKC
B36: KARS1, Q15046 (peptide)
chain: LESTTVGTSV
B37: KIRREL2, Q6UWL6 (peptide)
chain: PSHPRLQTHV
B38: FZD10, Q9ULW2 (peptide)
chain: EIPAQSPTCV
B39: RPS6KA3, P51812 (peptide)
chain: GIKKITSTAL
B40: FAM110B, Q8TC76 (peptide)
chain: ARESQKVSHV
B41: MYPN, Q86TC9 (peptide)
chain: SRSVVESDEL
B42: RTKN, Q9BST9 (peptide)
chain: QPRTWLQSPV
B43: KCNJ4, P48050 (peptide)
chain: NISYRRESAI
B44: GRIA2, P42262 (peptide)
chain: NVYGIESVKI
B45: NCF1, P14598 (peptide)
chain: STKRKLASAV
B46: MYOT, Q9UBF9 (peptide)
chain: QSGLYESEEL
B47: ACE2, Q9BYF1 (peptide)
chain: QNTDDVQTSF

Legend:
Assay in all cases: holdup assay
Parameters in all cases: key: below the threshold = too weak to quantify, mostly under pKd 3.1 to 4
GIPC2, Q8TF65 = biological target: GIPC2, Q8TF65
DLG2_3, Q15700 = biological target: DLG2_3, Q15700
PTPN13_1, Q12923 = biological target: T1, PTPN13_1, Q12923
[1] = plain residues with an end cap or a label only (N-terminal biotin on a linker: ado-ado)
[2] = plain residues with an end cap or a label only (N-terminal biotin on a linker: ahx)

Chain of GIPC2, Q8TF65 (Q8TF65 112-203): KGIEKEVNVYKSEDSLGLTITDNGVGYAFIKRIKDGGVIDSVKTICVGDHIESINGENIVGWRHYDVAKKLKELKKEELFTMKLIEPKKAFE

Row | Binder | pKd (GIPC2, Q8TF65; [1]) | pKd (DLG2_3, Q15700; [1]) | pKd (PTPN13_1, Q12923; [1]) | pKd (GIPC2, Q8TF65; [2]) | pKd (DLG2_3, Q15700; [2]) | pKd (PTPN13_1, Q12923; [2])
1 | B1 | 4.06 | below the threshold | below the threshold |  |  | 
2 | B2 | below the threshold | 5.29 | below the threshold |  |  | 
3 | B3 | 3.95 | below the threshold | below the threshold |  |  | 
4 | B4 | below the threshold | 4.91 | 3.53 |  |  | 
5 | B5 | below the threshold | 3.48 | below the threshold |  |  | 
6 | B6 |  | below the threshold | below the threshold |  |  | 
7 | B7 | below the threshold | below the threshold | below the threshold |  |  | 
8 | B8 | 4.32 | 4.54 | below the threshold |  |  | 
9 | B9 | below the threshold | 4.82 | below the threshold |  |  | 
10 | B10 | 4.22 | 4.38 | below the threshold |  |  | 
11 | B11 | below the threshold | 3.71 | below the threshold |  |  | 
12 | B12 | below the threshold | 3.7 | below the threshold |  |  | 
13 | B13 | below the threshold | below the threshold | below the threshold |  |  | 
14 | B14 | below the threshold | 3.57 | below the threshold |  |  | 
15 | B15 |  |  |  | below the threshold | below the threshold | below the threshold
16 | B16 | below the threshold | 4.9 | below the threshold |  |  | 
17 | B17 | below the threshold | 3.54 | below the threshold |  |  | 
18 | B18 | below the threshold | below the threshold | below the threshold |  |  | 
19 | B19 | 3.75 | 3.49 | below the threshold |  |  | 
20 | B20 | below the threshold | below the threshold | below the threshold |  |  | 
21 | B21 |  |  |  | 4.26 | 4.63 | below the threshold
22 | B22 | below the threshold | 3.91 | below the threshold |  |  | 
23 | B23 | below the threshold | below the threshold | below the threshold |  |  | 
24 | B24 | below the threshold | 4.38 | below the threshold |  |  | 

Row | Binder | pKd (GIPC2, Q8TF65; [1]) | pKd (DLG2_3, Q15700; [1]) | pKd (PTPN13_1, Q12923; [1]) | pKd (GIPC2, Q8TF65; [2]) | pKd (DLG2_3, Q15700; [2]) | pKd (PTPN13_1, Q12923; [2])
25 | B25 | below the threshold | 3.91 | below the threshold |  |  | 
26 | B26 | 3.73 | 3.88 |  |  |  | 
27 | B27 | below the threshold | below the threshold | below the threshold |  |  | 
28 | B28 | below the threshold | 3.62 | below the threshold |  |  | 
29 | B29 | below the threshold | 3.78 | 3.49 |  |  | 
30 | B30 | 4.08 | 3.63 | below the threshold |  |  | 
31 | B31 | below the threshold | below the threshold | below the threshold |  |  | 
32 | B32 | below the threshold | 3.67 | below the threshold |  |  | 
33 | B33 | 3.48 | 4.67 | below the threshold |  |  | 
34 | B34 | below the threshold | 3.63 | below the threshold |  |  | 
35 | B35 | 4.05 | 4.07 | below the threshold |  |  | 
36 | B36 | below the threshold | 4.23 | below the threshold |  |  | 
37 | B37 | below the threshold | 4.26 | below the threshold |  |  | 
38 | B38 | 3.74 | below the threshold | 3.72 |  |  | 
39 | B39 | below the threshold | 3.63 | below the threshold |  |  | 
40 | B40 | below the threshold | 3.62 | below the threshold |  |  | 
41 | B41 | below the threshold | below the threshold | below the threshold |  |  | 
42 | B42 |  |  |  | below the threshold | 3.62 | below the threshold
43 | B43 | below the threshold | 4.36 | below the threshold |  |  | 
44 | B44 | below the threshold | 3.81 | below the threshold |  |  | 
45 | B45 | below the threshold | 4.09 | below the threshold |  |  | 
46 | B46 | below the threshold | 3.88 | below the threshold |  |  | 
47 | B47 |  |  |  | below the threshold | below the threshold | below the threshold
